The series deals with the molecule itself. Nature of the series: crystal structure; micro-electron diffraction (micro-ED) of M9I microcrystals grown in batch: 6 mg/ml peptide in 1% DMSO mixed 1:1 with 0.1 M sodium phosphate pH 4.6, 1.5 M NaCl, room temperature; 1.05 Å, direct methods.

B1: M9I, the first 9 N-terminal residues of Drosophila Orb2A (peptide)
peptide: MYNKFVNFI
notes: Dissolved in 100% DMSO, then diluted in water or buffer; Terminal protecting groups are not mentioned; also called M9I-WT; wildtype M9I; source: synthetic peptide, bought: Genscript (>98% purity)
B1: the binding result is listed as “binds”.

(Values after paper PMC9556795, “Micro-electron diffraction structure of the aggregation-driving N terminus of Drosophila neuronal protein Orb2A reveals amyloid-like β-sheets” (The Journal of Biological Chemistry, 2022).)
